Reference: patent US11130803B2, “Isoform-selective TGFβ1 inhibitors and use thereof” (Scholar Rock, Inc., priority 2018, dated 2021)

Legend:
hGARP-proTGFβ1 = target: T1, hGARP-proTGFβ1 (Homo sapiens, UniProt P01137); assay: MSD-SET solution equilibrium titration binding; settings: MSD-SET at equilibrium, hIgG4, human complex; in M
T1 construct: made in house
Source text: (§1) Solution Equilibrium Titration (SET): The SET is an assay whereby binding between two molecules (such as an antigen and an antibody that binds the antigen) can be measured at equilibrium in a solution. For example, Meso-Scale Discovery (“MSD”)-based SET, or MSD-SET, is a useful mode of determining dissociation constants for particularly high-affinity protein-protein interactions at equilibrium, such as picomolar-affinity antibodies binding to their antigens (see, for example: Ducata et al. (2015) J Biomolecular Screening 20(10): 1256-1267). The SET-based assays are particularly useful for determining KD values of antibodies with sub-nanomolar (e.g., picomolar) affinities.
(§2) In view of this, it is contemplated that assays that measure binding affinities of such antibodies at equilibrium may more accurately represent the mode of target engagement in vivo. Thus, MSD-SET-based binding assays (or other suitable assays) may be performed, as exemplified in Table 9 below.
(§3) Solution equilibrium titration (“SET”) is an assay whereby binding between two molecules (such as an antigen and an antibody that binds the antigen) can be measured at equilibrium in a solution. For example, Meso-Scale Discovery (“MSD”)-based SET, or MSD-SET, is a useful mode of determining dissociation constants for particularly high-affinity protein-protein interactions at equilibrium (see, for example: Ducata et al. (2015) J Biomolecular Screening 20(10): 1256-1267). The SET-based assays are particularly useful for determining KD values of antibodies with sub-nanomolar (e.g., picomolar) affinities.
(§4) For solution equilibrium titration-based binding assays, protein complexes that comprise one of the presenting molecules such as those shown above may be employed as antigen (presenting molecule-TGFβ1 complex, or an LLC). Test antibodies are allowed to form antigen-antibody complex in solution. Antigen-antibody reaction mixtures are incubated to allow an equilibrium to be reached; the amount of the antigen-antibody complex present in the assay reactions can be measured by suitable means well known in the art. As compared to BLI-based assays, SET-based assays are less affected by on/off rates of the antigen-antibody complex, allowing sensitive detection of very high affinity interactions.

hLRRC33-proTGFβ1 = target: T2, hLRRC33-proTGFβ1 (Homo sapiens, UniProt P01137); assay: MSD-SET solution equilibrium titration binding; settings: MSD-SET at equilibrium, hIgG4, human complex; in M
T2 construct: made in house
T2 sequence (P01137 30-390): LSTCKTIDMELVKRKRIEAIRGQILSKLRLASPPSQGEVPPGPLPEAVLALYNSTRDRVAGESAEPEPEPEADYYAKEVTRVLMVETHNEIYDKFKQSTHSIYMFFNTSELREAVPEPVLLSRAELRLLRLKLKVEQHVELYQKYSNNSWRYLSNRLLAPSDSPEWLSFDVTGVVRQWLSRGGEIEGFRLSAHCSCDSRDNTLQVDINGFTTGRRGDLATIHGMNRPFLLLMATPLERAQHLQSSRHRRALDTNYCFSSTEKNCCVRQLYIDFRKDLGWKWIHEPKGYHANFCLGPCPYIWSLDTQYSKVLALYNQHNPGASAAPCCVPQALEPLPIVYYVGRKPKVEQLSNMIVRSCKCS
T2 sequence (Q86YC3 19-650 partner limits assumed): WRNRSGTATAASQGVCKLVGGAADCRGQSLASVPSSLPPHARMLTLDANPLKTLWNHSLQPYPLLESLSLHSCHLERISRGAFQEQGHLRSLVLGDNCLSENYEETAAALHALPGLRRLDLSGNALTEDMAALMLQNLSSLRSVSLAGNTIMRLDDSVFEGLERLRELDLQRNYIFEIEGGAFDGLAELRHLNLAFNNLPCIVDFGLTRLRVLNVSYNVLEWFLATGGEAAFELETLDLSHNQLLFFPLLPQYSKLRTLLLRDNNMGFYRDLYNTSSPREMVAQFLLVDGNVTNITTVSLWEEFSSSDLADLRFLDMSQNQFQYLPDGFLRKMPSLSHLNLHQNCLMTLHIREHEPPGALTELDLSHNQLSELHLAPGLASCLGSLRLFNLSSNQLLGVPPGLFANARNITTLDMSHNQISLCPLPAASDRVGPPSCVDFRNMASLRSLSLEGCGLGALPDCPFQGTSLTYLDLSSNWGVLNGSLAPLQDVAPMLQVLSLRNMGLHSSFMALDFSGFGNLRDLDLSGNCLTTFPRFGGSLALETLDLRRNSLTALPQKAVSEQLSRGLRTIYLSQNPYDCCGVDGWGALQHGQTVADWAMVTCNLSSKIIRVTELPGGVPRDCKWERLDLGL
Source text: as §1, §2, §3, §4

hLTBP3-proTGFβ1 = target: T3, hLTBP3-proTGFβ1 (Homo sapiens, UniProt P01137); assay: MSD-SET solution equilibrium titration binding; settings: MSD-SET at equilibrium, hIgG4, human complex; in M
T3 construct: made in house; host or cells: Expi293F cells, transient co-transfection
T3 sequence (P01137 30-390): as the sequence (P01137 30-390) above
T3 sequence (Q9NS15 866-1039 partner limits assumed): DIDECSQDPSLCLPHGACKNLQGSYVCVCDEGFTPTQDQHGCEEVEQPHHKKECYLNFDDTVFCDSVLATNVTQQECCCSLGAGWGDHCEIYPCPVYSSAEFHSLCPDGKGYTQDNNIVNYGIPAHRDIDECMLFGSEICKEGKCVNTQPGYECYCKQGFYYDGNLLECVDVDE
Source text: as §1, §2, §3, §4

hLTBP1-proTGFβ1 = target: T4, hLTBP1-proTGFβ1 (Homo sapiens, UniProt P01137); assay: MSD-SET solution equilibrium titration binding; settings: MSD-SET at equilibrium, hIgG4, human complex; in M
T4 construct: made in house; host or cells: Expi293F cells, transient co-transfection
T4 sequence (P01137 30-390): as the sequence (P01137 30-390) above
T4 sequence (Q14766 873-1507 partner): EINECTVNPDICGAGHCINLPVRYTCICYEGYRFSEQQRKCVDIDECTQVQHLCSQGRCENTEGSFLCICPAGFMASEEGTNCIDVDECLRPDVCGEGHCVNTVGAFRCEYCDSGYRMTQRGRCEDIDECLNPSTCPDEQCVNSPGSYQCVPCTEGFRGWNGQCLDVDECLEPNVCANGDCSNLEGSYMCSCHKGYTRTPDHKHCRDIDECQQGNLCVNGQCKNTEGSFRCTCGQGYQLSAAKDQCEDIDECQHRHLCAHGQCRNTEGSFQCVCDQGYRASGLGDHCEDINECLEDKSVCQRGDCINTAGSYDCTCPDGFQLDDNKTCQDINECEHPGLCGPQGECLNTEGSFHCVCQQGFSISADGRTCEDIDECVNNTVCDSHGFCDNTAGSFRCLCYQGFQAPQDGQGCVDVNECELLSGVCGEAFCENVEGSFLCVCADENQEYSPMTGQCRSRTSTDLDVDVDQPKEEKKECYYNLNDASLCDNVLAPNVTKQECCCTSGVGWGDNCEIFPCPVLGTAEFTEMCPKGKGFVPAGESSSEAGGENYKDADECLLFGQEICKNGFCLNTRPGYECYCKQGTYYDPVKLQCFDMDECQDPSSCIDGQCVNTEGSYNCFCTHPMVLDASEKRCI
Source text: as §1, §2, §3, §4

[1] = target: T5, recombinant human LRRC33-proTGFβ1 complex (Homo sapiens, UniProt P01137); assay: Octet (Biolayer Interferometry) in vitro kinetic binding; settings: in M
T5 construct: made in house
T5 sequence (P01137 30-390): as the sequence (P01137 30-390) above
T5 sequence (Q86YC3 19-650 partner limits assumed): as the sequence (Q86YC3 19-650 partner limits assumed) above
Procedure, shortened: (§5)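 Antibody binding kinetics (KD) were determined by biolayer interferometry (Octet QKe) using streptavidin-coated biosensors. Biotinylated human presenting molecule–proTGFβ1 complexes were presented at […].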

[2] = target: T6, recombinant human LTBP1-proTGFβ1 complex (Homo sapiens, UniProt P01137); assay: as above; settings: in M
T6 construct: made in house; host or cells: Expi293F cells, transient co-transfection
T6 sequence (P01137 30-390): as the sequence (P01137 30-390) above
T6 sequence (Q14766 873-1507 partner): as the sequence (Q14766 873-1507 partner) above
Procedure, shortened: as §5

[3] = target: T7, recombinant human LTBP3-proTGFβ1 complex (Homo sapiens, UniProt P01137); assay: as above; settings: in M
T7 construct: made in house; host or cells: Expi293F cells, transient co-transfection
T7 sequence (P01137 30-390): as the sequence (P01137 30-390) above
T7 sequence (Q9NS15 866-1039 partner limits assumed): as the sequence (Q9NS15 866-1039 partner limits assumed) above
Procedure, shortened: as §5

[4] = target: T8, recombinant human GARP-proTGFβ1 complex (Homo sapiens, UniProt P01137); assay: as above; settings: in M
T8 construct: made in house
T8 sequence (P01137 30-390): as the sequence (P01137 30-390) above
T8 sequence (Q14392 20-627 partner limits assumed): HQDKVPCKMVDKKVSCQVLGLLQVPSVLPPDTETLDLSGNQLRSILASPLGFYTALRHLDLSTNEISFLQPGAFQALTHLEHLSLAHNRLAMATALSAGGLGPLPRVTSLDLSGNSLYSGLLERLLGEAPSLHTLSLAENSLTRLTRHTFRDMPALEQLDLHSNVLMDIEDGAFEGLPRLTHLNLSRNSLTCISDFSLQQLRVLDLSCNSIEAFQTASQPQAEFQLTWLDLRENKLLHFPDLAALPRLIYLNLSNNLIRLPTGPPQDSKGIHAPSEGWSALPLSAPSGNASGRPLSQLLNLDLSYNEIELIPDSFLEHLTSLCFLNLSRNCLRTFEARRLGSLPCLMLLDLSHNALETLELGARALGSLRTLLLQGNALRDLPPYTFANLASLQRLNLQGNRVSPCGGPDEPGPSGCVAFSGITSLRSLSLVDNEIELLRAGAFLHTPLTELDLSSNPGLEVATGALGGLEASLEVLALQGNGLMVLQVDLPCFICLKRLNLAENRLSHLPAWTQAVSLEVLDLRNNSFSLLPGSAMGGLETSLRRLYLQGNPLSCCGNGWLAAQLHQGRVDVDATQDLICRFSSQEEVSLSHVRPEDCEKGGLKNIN
Procedure, shortened: as §5

T1 sequence (P01137 30-390): as the sequence (P01137 30-390) above
T1 sequence (Q14392 20-627 partner limits assumed): as the sequence (Q14392 20-627 partner limits assumed) above

Molecule | (E) hGARP, Cell-associated proTGFβ1 KD (hGARP-proTGFβ1) | (F) hLRRC33, Cell-associated proTGFβ1 KD (hLRRC33-proTGFβ1) | (C) hLTBP3, Matrix-associated proTGFβ1 KD (hLTBP3-proTGFβ1) | (B) hLTBP1, Matrix-associated proTGFβ1 KD (hLTBP1-proTGFβ1) | (F) hLRRC33, Cell-associated proTGFb1 (KD) [1] | (B) hLTBP1, Matrix-associated proTGFb1 (KD) [2] | (C) hLTBP3, Matrix-associated proTGFb1 (KD) [3] | (E) hGARP, Cell-associated proTGFb1 (KD) [4]
Ab12: monoclonal antibody; VH SEQ ID NO: 237, VL SEQ ID NO: 241 (antibody, V domains shown) VH: QVQLVESGGGVVQPGRSLRLSCAASGFTFSDYAMVWVRQAPGKGLEWVSAISGSGFTTYYADSVKGRFTISRDNSKNTLYLQMNSLRAEDTAVYYCARVSSGHWDFDYWGQGTLVTVSS VL: DIQLTQSPSSLSASVGDRVTITCRASQSISSYLNWYQQKPGKAPKLLIYAASNLQSGVPSRFSGSGSGTDFTLTISSLQPEDFATYYCQQTYTVPLTFGGGTKVEIK | 1.70E−09 | 3.20E−09 | 6.60E−10 | 7.80E−10 | 7.75E−10 | 1.57E−10 | 1.83E−10 | 7.01E−09
Ab19: monoclonal antibody; VH SEQ ID NO: 250, VL SEQ ID NO: 241 (antibody, V domains shown) VH: QVQLVESGGGVVQPGRSLRLSCAASGFTFSSFAMTWVRQAPGKGLEWVSAISGSGAATYFADSVKGRFTISRDNSKNTLYLQMNSLRAEDTAVYYCARVSSGHWDFDEWGQGTLVTVSS VL: DIQLTQSPSSLSASVGDRVTITCRASQSISSYLNWYQQKPGKAPKLLIYAASNLQSGVPSRFSGSGSGTDFTLTISSLQPEDFATYYCQQTYTVPLTFGGGTKVEIK | 3.80E−09 | 5.70E−09 | 2.70E−09 | 2.10E−09 | 6.92E−10 | 1.89E−10 | 1.56E−10 | 1.12E−08

Further lines, results first:

(E) hGARP, Cell-associated proTGFβ1 KD (hGARP-proTGFβ1) | (F) hLRRC33, Cell-associated proTGFβ1 KD (hLRRC33-proTGFβ1) | (C) hLTBP3, Matrix-associated proTGFβ1 KD (hLTBP3-proTGFβ1) | (B) hLTBP1, Matrix-associated proTGFβ1 KD (hLTBP1-proTGFβ1) | (F) hLRRC33, Cell-associated proTGFb1 (KD) [1] | (B) hLTBP1, Matrix-associated proTGFb1 (KD) [2] | (C) hLTBP3, Matrix-associated proTGFb1 (KD) [3] | (E) hGARP, Cell-associated proTGFb1 (KD) [4] | Molecule
1.50E−11 | 8.70E−11 | 2.60E−11 | 3.70E−11 | 6.98E−10 | 2.69E−10 | 2.15E−10 | 4.96E−10 | Ab32: monoclonal antibody; VH SEQ ID NO: 140, VL SEQ ID NO: 15 (antibody, V domains shown) VH: EVQLVESGGGLVQPGGSLRLSCAASGFTFSSFSMNWVRQAPGKGLEWVSYISPSADTIYYADSVKGRFTISRDNAKNTLYLQMNSLRAEDTAVYYCARGVWDMGDMLDPWGQGTLVTVSS VL: DIQMTQSPSSLSASVGDRVTITCQASQDITNYLNWYQQKPGKAPKLLIYDASNLETGVPSRFSGSGSGTDFTFTISSLQPEDIATYYCQQADNHPPWTFGGGTKVEIK
7.80E−12 | 4.60E−11 | 7.00E−12 | 1.10E−11 | 3.39E−10 | 1.79E−10 | 1.11E−10 | 2.65E−10 | Ab33: monoclonal antibody; VH SEQ ID NO: 141, VL SEQ ID NO: 15 (antibody, V domains shown) VH: EVQLVESGGGLVQPGGSLRLSCAASGFTFSSFSMNWVRQAPGKGLEWVSYISPSADTIYYADSVKGRFTISRDNAKNTLYLQMNSLRAEDTAVYYCAHGVLDYGDMLDPWGQGTLVTVSS VL: DIQMTQSPSSLSASVGDRVTITCQASQDITNYLNWYQQKPGKAPKLLIYDASNLETGVPSRFSGSGSGTDFTFTISSLQPEDIATYYCQQADNHPPWTFGGGTKVEIK
